Experimental data reported in PMC9555795, “Divergent kinase WNG1 is regulated by phosphorylation of an atypical activation sub-domain” (Biochemical Journal, 2022).

Molecular target: the molecule itself
Experiment: SAXS; protein diluted from a 305 uM stock in 20 mM HEPES pH 7.5, 100 mM NaCl; DAMMIN envelope, SASREF P2 tetramer model compared with the crystal hexamer

B1: BPK1 (residues 61-377) (domain or fragment)
chain: SVYRIPLADMTFWSWMSYLKELPDIDESRNPILKRLLSGSFLRRDGSTTVNVRVPARELVRLLSLTPEQQREGVSAKVRLINLLDPKYSVYEPYLYREILPKRSPLLLPSLGEYRGAFLTYIFHPLSKGLVGDMLETGRSHPDVQVLAANMVAALKSLHNLGLLHRSIELNSFSVLPDGTVVLGGLDTAAPIGTETRLWVGFFGQETAPEIDRNFLADLALTQGRHTVKSDVYSLGVAFRNLVQLLGNGNIGPEDRGAVRQDHLELLDKLSQKMIEEEPGNRPTIEEIMKDPLFEGLNFEDIEEGKARPFRYKQNRL
notes: BPK1, pseudokinase of the WNG family, Toxoplasma gondii, residues 61-377; Cloned in pET28a with the SUMO tag; Purified on Ni-NTA as for WNG1, so a His tag probably went off with the SUMO tag; The species is stated for the WNG family in general, not for BPK1 by name; also called WNG family pseudokinase; source: Rosetta 2 (DE3) cells, purified (Ni-NTA, ULP1 digestion, anion exchange, SEC)
B1 was tested, and the “stoichiometry N” value was 4.
